Test results published in publication PMC6201590, “Fibronectin type III domain-containing protein 5 interacts with APP and decreases amyloid β production in Alzheimer’s disease” (Molecular Brain, 2018).

Target: full-length APP770 tagged with V5 (UniProt P05067-1 18-770)
Experiment: cell-based or functional assay

Chain of full-length APP770 tagged with V5 (P05067 18-770): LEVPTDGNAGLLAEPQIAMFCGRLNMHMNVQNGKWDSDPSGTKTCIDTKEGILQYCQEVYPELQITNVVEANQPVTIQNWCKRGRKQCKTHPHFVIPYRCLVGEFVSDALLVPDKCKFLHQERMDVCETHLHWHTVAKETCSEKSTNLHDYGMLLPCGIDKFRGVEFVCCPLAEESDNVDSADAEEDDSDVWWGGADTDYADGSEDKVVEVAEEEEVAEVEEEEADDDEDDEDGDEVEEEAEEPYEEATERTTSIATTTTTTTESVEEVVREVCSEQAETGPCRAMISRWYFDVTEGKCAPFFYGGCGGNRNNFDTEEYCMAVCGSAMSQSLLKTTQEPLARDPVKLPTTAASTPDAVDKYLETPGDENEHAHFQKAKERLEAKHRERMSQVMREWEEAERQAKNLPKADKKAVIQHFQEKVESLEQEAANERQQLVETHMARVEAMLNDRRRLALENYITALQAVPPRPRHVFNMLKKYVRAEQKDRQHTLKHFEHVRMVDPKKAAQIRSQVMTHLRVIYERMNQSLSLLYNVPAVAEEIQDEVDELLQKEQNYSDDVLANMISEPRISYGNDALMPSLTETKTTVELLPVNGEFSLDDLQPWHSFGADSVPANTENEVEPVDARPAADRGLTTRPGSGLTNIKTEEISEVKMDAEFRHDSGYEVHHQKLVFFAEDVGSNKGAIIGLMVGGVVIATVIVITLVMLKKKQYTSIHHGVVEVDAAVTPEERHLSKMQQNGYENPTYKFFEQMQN

B1: Fibronectin type III domain-containing protein 5 tagged with HA at the C-terminus (natural protein, mouse, UniProt Q8K4Z2 60-240, looked up)
chain: DSPSAPVNVTVRHLKANSAVVSWDVLEDEVVIGFAISQQKKDVRMLRFIQEVNTTTRSCALWDLEEDTEYIVHVQAISIQGQSPASEPVLFKTPREAEKMASKNKDEVTMKEMGRNQQLRTGEVLIIVVVLFMWAGVIALFCRQYDIIKDNEPNNNKEKTKSASETSTPEHQGGGLLRSKI
  Aβ40 and Aβ42 secreted into the medium (ELISA) of HEK293 cells transfected with APP770-V5 and FNDC5-HA, with Aβ1–16 peptide treatment against without it: ~1.4 fold
